Laboratory results taken from paper PMC9975939.

Molecular target: T1, untagged NDP52 wild type (human), Q13137
T1 chain: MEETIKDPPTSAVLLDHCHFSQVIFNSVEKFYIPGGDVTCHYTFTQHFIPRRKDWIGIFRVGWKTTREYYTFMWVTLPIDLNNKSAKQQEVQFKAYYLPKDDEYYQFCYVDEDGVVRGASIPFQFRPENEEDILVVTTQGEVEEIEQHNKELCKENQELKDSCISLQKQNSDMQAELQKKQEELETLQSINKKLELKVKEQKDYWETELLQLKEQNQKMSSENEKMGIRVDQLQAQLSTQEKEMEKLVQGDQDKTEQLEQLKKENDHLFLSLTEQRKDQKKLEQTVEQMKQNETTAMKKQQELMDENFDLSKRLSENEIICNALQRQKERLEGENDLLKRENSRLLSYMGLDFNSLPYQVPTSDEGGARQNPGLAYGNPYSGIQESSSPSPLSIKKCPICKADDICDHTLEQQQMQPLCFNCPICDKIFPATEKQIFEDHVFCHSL
Assay: native gel or EMSA; blue native PAGE (4–16% NativePAGE gel, Coomassie G-250) of recombinant NDP52 WT and Mut, immunoblot
Details: remark: other sources report otherwise

B1: untagged NDP52 wild type, Q13137 1-446 (natural protein)
chain: T1 chain
For B1, the stoichiometry N was 2.
